This data set in a line: amyloid nucleation score (Sup35N fusion, yeast selection) (log enrichment); library NNK3; higher = more nucleation; inactive = no reads after selection. In a few lines:
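On medium lacking adenine and uracil, psi-negative yeast expressing peptides of 20 random codons fused to Sup35N were grown 7 days at 30°C after a 24-hour induction with 100 μM copper sulfate. Illumina sequencing of input and output plasmid inserts gave the reads, and sequences under 100 input reads were excluded. The nucleation score is the DiMSum log enrichment of output over input reads, centred on the mode score of non-aggregating sequences.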

The text below walks through data of the supplement of paper PMC12042874.

± gives the uncertainty stated by the source.

The substance SISIFHNCF came in with an amyloid nucleation score of 2.66 ± 0.063. Turning to RFYGYTLY, the amyloid nucleation score result is “inactive”. As for IVSVQVVLLYQM, the figure is 1.12 ± 0.14; as for SCCGRKMRPGRFEIIDKFCI, 0.523 ± 0.24. Consider IRLVMETLGNLGIADKSMRV, for which the amyloid nucleation score result was “inactive”. As for PLKGDTVSYCGV, the entry is “inactive”; as for LCCFCCDPHLR, 2.64 ± 0.061. As for TGARMVLCIFGIYSMYTLHN, the figure is 1.99 ± 0.074; as for VMMFSELGCCVLCGPLKDNM, 1.62 ± 0.06. As for VFKWWM, the figure is 1.2 ± 0.16.

On to MTCWTTYNGTDIEGKGGINN, for which the amyloid nucleation score result was “inactive”. Regarding FASVFVMN, the amyloid nucleation score entry is “inactive”. In the case of MYGLLIKNSYRKRLDLSVSI it was “inactive”; in that of TVTHALLSYKCHNG, “inactive”. In the case of LCLRSVRLCGKAYSINDRRH it was “inactive”; in that of AYLCGANINL, “inactive”.

NEDST: the amyloid nucleation score entry is “inactive”.

In the case of LERTNWCQYHL, the amyloid nucleation score entry was “inactive”. The substance TFSNYALNVSAYRVDIFEML came in with an amyloid nucleation score of 0.979 ± 0.14. As to SDLSCSELEYSHGTNTDWVR, the amyloid nucleation score result is “inactive”. In the case of NLGTTLYVEICNWRIVLYIV it was “inactive”. SVDDSFLYLYRYKGFCPNF: the amyloid nucleation score result was “inactive”. As for KRYLGLMQRDVWISDAKLSA, the entry is “inactive”; as for SREDCGGI, “inactive”. As for ILTLLCRFTYRDETPCLWTV, the entry is “inactive”. For the substance GTLVWNCDGCLDLKGRWVGG, the amyloid nucleation score result is “inactive”.

In the case of VLCVETTCPVGDIMECCLLP, the amyloid nucleation score result was “inactive”. In the case of WLFYLT it was “inactive”; in that of IMTVILSPLLTCNYFCCR, 2.35 ± 0.085. In the case of WLDRVY it was “inactive”; in that of RSVFTTSCH, “inactive”. In the case of FKAVQN it was “inactive”; in that of FYHVTGLFT, “inactive”; in that of KCMAI, “inactive”. On to HGSLMATGICWLGIFVSEVA, for which the amyloid nucleation score result was “inactive”. Take RVAFSMESTPWSMFTSRTAE: the amyloid nucleation score result is “inactive”. As for TKNRVYQWMSLSGM, the figure is 0.828 ± 0.12. As for LLVLKYVMSRTWWSWGA, the entry is “inactive”.

Take TRMDIESGYVLESYSRPSPM: the amyloid nucleation score entry was “inactive”. Substance AFINMMWNSTMDLCRPFLPT gave an amyloid nucleation score of 0.698 ± 0.27. For CVFRWMLFSASEYDGRILKW, the amyloid nucleation score result was “inactive”.

Take CGDLMPNRYTLSSSNTMSNS: the amyloid nucleation score entry was “inactive”. In the case of IRHVHLSRYSTRTDGNNQLD it was “inactive”. In the case of RYSRSKIG it was “inactive”; in that of LSLMSSVGCRCSVFSWLYVN, “inactive”; in that of GIKKTREPNCLVCIDIWIFI, 1.33 ± 0.07. In the case of NNAVQLYFYRLDMSYA, the amyloid nucleation score entry was “inactive”. As for TAKPYRDDNNGYSAYIHPCS, the entry is “inactive”. Take ATMKWFCIKHSFFPIGTCYA: the amyloid nucleation score result is “inactive”. As for VSYEWPSQMFRPRVPLALAT, the entry is “inactive”; as for SNGLGLSLGNESANKEA, “inactive”; as for FDDYLKSYFKQYSNDHVG, “inactive”. As for VFRLKSVLSGLLQAHRLAGI, the entry is “inactive”; as for RVFGGEIRLSRTCVVM, 1.27 ± 0.17. As for GFLLFLAVWRDTIGIVLVVL, the entry is “inactive”; as for FSDMCGRSFINSSWGGSAGV, “inactive”; as for TWDMSLT, “inactive”. For SACECAPTTSRIRPGSSATR, the amyloid nucleation score result was “inactive”.

In the case of RSRYSSLPLPVV, the amyloid nucleation score entry is “inactive”. RRWTTEVKQVHDYCG: the amyloid nucleation score result is “inactive”. In the case of PVNNIYGRLPGLLKLEKVSS it was “inactive”; in that of FVGTCGMMSALFLHSSPSFV, “inactive”. As for NLGYALICQSRVGGTFLVNS, the entry is “inactive”. In the case of TSGAANHYLYSSVSWTFFLL it was 0.764 ± 0.19; in that of FNVANIRSRFFHFTYSRKVS, “inactive”. Consider CSEVFTSNWAYETASNCKRV, for which the amyloid nucleation score is 1.08 ± 0.12. As to YAGQDEFFMVTVYIKPNDLC, the amyloid nucleation score was found to be 1.85 ± 0.085.

With VRISMRDMVWSRFWLPVVLK, the amyloid nucleation score entry is “inactive”. In the case of FRHPIYCLDLSFSYRMKARG it was 0.052 ± 0.28; in that of SEVRSLKHVGLCIQSMGSAL, “inactive”; in that of IMMFIPWTSYLKYRIIMDYS, “inactive”. As for YLDKRYVVGVFMLDSNLDLS, the entry is “inactive”; as for VFTWILSDSHTSMWFRCQGG, “inactive”. As for MWPYIMILGIVDTMWLLLSP, the entry is “inactive”. Consider GFTRKFSFYKRHQSVWITRR, for which the amyloid nucleation score result is “inactive”. Consider HYCRNTGC, for which the amyloid nucleation score result is “inactive”. Consider SRPILLLSFCFRCAIC, for which the amyloid nucleation score result is “inactive”. In the case of RHVNEGLVRGFNPSRTLKGK it was “inactive”; in that of DKHMIGLYNPRASIELL, “inactive”; in that of SVDWYNFECSIASPF, “inactive”. YIRIDTGLLCVCGLSQEGVV: the amyloid nucleation score result is “inactive”. In the case of LDDEVEQSTAASDIRLLSTL it was “inactive”; in that of MCTNYYITCRSKSCVICRRI, 2.31 ± 0.059. As for ESRVPRSIKDSL, the entry is “inactive”; as for VMTAVRAD, “inactive”. As for SGAFYAHHHLSRLLTDEDIS, the entry is “inactive”; as for SVYGACSRFPTNVVYNRSEY, “inactive”. On to TSTRHDGGFMVMWYLLGLTR, for which the amyloid nucleation score result is “inactive”. In the case of LTFSSSHCVIMWQFLCKLVG it was “inactive”; in that of VRNILRLNRFCWCKTLQKIA, “inactive”; in that of LRDMTGILPRGRFADETSRF, “inactive”. In the case of GSWLNSYVELTCVFFGSFYM it was “inactive”; in that of PCPFILFYSEFTWSRY, “inactive”; in that of SNIRVKFHTPSIGMRCLRTR, “inactive”. As for RVGAVMVEGRFLYHA, the figure is 0.522 ± 0.38. Take RNKVKQTE: the amyloid nucleation score entry was “inactive”.

In the case of EHGMVENRQRRFCLDWWDGM, the amyloid nucleation score entry is “inactive”. As for PVSAH, the figure is 1.08 ± 0.17; as for TICRCRWGIRPYLALCIHYS, “inactive”. As for SSKFRRLLGVIMMADLMQVY, the entry is “inactive”. In the case of LFEGDQDGMRVCSHHMVFMI it was “inactive”.

For the substance VKEPMVPITLLSSTSSLDGM, the amyloid nucleation score entry is “inactive”. In the case of WSLNWLMTFGLIYRQFSHLY it was “inactive”; in that of IDQRWYCALQCHCREEINCR, “inactive”; in that of NFSPHTFVSNSM, “inactive”. Turning to VIVELVCLVMFNVWVGKGLW, the amyloid nucleation score was -0.054 ± 0.31.

In the case of YPHREQVRRSL, the amyloid nucleation score result was “inactive”.

Turning to RLAGCYYIP, the amyloid nucleation score result was “inactive”. Consider LYVYTMR, for which the amyloid nucleation score result is “inactive”. As for GYQLLNHLHAYTAGTNNLRL, the entry is “inactive”; as for DDSLDVSCLEYRSAME, “inactive”; as for GACRCNCSSSDDPQNKRNML, “inactive”.

VFPFSSFFKFLQRSWCGRDE had an amyloid nucleation score of 1.22 ± 0.12. With IVVRPR, the amyloid nucleation score was 1.24 ± 0.17. In the case of CFLAENILFSN it was 0.024 ± 0.64; in that of NSHLSKNGQWIPLSAPATTT, “inactive”; in that of LNFRSV, “inactive”. As for HILFLYRDLVILVLCSSHPC, the entry is “inactive”. In the case of VEMGDSVRSRGYSISVFLRK it was “inactive”; in that of GLVSVLSDEMYCFWQYSCYS, 1.91 ± 0.091; in that of APDVQYFYSLQD, “inactive”. For the substance WYTVRSKYANHVNDRHSRRW, the amyloid nucleation score is -0.507 ± 0.98. As for CTITNWHNKYC, the entry is “inactive”. On to NEFGEVLDSN, for which the amyloid nucleation score entry was “inactive”. In the case of KRFHMYVHGSDMEVLLAGKC it was “inactive”; in that of LVFHYRARKGLSIIG, “inactive”. With GFMHTVRCIRIEPPQCRAVV, the amyloid nucleation score result was “inactive”.

As to PVNIVCTVNSLSGSYED, the amyloid nucleation score entry was “inactive”.

In the case of RKGLL, the amyloid nucleation score result was “inactive”. In the case of NFTSRSAVLVR it was 2.21 ± 0.07; in that of SRMPCRFM, “inactive”. In the case of FHTPRILYTMNS it was “inactive”.
